Legend:
[1] = biological target: SCF holoenzyme (FRET experiment of Figure S2c) (human) (UniProt P62877); assay: FRET or BRET
[2] = biological target: Rbx1-Cul1-CFP complex (RC^CFP) (human) (UniProt P62877); assay: FRET or BRET
[3] = biological target: Nedd8-conjugated RC^CFP (human) (UniProt P62877); assay: FRET or BRET
SCF (Homo sapiens) = SCF (Homo sapiens) (UniProt Q13616); details: cited from earlier work

Cdc34, sequence (P49427 whole entry): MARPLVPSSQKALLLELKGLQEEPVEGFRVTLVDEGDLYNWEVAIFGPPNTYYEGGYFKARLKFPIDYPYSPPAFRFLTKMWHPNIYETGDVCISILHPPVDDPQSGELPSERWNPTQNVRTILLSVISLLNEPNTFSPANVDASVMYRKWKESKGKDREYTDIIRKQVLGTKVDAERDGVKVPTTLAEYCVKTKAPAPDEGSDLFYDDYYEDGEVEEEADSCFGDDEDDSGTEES

human Cdc34, WT, labelled with Lumio Green at the C-terminus (from UniProt Q712K3 1-238) (enzyme)
fold change of koff against RC^CFP heterodimer [1]: < 2 fold
Kd [2]: 74 nM
koff [2]: 35 s⁻¹
kon [2]: 4.7e+08 M⁻¹ s⁻¹

human Cdc34 charged with ubiquitin (Cdc34~Ub) (from UniProt Q712K3 1-238; P0CG48 1-76) (complex)
fold change of the kinetic parameters against uncharged Cdc34 [3]: 2 fold

Cdc34 (from UniProt P49427)
Kd (SCF (Homo sapiens)): 20 nM
